Data published in patent US20180134794A1 (Regeneron, published 2018).

The binders below were run against human MET (c-Met, hepatocyte growth factor receptor), endogenous on human cell lines (human, UniProt P08581 25-1390) (assay: cell-based or functional assay).
Throughout, for % Inhibition (HEK293/SRE-Luc Blocking Activity, 1 h mAb pre-bind): test concentration or dose not given here.

Sequence of human MET (c-Met, hepatocyte growth factor receptor), endogenous on human cell lines (P08581 25-1390 limits assumed, form in doubt): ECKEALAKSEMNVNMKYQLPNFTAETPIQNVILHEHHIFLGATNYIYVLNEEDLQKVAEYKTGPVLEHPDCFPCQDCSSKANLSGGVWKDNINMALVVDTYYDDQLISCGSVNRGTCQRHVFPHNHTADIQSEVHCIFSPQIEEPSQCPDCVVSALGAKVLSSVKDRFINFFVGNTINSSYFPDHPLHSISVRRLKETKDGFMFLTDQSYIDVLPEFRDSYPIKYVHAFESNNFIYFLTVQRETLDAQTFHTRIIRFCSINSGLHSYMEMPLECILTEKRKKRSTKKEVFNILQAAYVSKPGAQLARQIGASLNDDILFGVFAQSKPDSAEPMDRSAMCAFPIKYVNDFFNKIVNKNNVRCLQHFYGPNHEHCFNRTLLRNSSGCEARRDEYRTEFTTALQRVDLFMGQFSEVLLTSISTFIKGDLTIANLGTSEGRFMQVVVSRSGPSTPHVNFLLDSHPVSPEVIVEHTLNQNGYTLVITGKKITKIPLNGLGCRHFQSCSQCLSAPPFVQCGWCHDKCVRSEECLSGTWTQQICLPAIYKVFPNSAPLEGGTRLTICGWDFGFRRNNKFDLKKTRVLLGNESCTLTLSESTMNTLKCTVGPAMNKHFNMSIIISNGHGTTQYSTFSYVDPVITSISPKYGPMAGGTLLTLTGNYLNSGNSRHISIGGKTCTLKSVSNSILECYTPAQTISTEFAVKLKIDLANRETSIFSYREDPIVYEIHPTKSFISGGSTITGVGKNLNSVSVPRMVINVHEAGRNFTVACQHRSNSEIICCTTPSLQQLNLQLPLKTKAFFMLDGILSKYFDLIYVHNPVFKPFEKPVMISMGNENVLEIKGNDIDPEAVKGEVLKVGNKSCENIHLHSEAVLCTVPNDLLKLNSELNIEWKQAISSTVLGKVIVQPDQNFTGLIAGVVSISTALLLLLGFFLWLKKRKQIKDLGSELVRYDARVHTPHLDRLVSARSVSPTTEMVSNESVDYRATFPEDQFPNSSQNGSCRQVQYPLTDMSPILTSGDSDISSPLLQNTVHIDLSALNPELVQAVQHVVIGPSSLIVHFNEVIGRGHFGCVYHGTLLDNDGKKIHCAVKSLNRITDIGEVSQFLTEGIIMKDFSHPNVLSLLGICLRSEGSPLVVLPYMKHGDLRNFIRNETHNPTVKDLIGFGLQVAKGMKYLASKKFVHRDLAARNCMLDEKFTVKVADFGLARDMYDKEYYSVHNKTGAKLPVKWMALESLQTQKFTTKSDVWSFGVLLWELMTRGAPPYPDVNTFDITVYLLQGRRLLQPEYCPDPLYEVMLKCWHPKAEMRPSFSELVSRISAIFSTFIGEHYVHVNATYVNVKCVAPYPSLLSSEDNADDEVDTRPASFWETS

| Binder | % Inhibition (HEK293/SRE-Luc Blocking Activity, 1 h mAb pre-bind) | EC50 (Ligand (HGF)-Independent HEK293/SRE-Luc Activation) | Fold Response (Ligand (HGF)-Independent HEK293/SRE-Luc Activation) | IC50 (HEK293/SRE-Luc Blocking Activity, 1 h mAb pre-bind) |
| --- | --- | --- | --- | --- |
| H4H14638D (bispecific antibody, human IgG4, V domains shown) VH 1: QVQLVESGGGVVQPGRSLRLSCAASGFTFSNFGMHWVRQAPGKGLEWVAGIWFDGSNKNYIDSVKGRFTISRDNSKNTLYLQMNSLRAEDTAVYYCAREGYDSGTDYIPYDIFDIWGQGTMVTVSS VH 2: EVQLVESGGGLVQPGGSLRLSCAASGFIVTTNYMTWLRQAPGKGLEWVSLIYSSGHTYYADSVKGRFTISRHNSKNTLYLQMDSLRAEDTAVYYCASAFAADVFDIWGQGTMVTVSS VL: not shown | 79% | 5900 pM | 2.6 fold | 1100 pM |
| H4H16449D (bispecific antibody, human IgG4, V domains shown) VH 1: QVQLVESGGGVVQPGRSLRLSCAASGFTFSSFAMHWVRQAPGKGLEWVAVIWYDGSNDYYAASVKGRFTISRDNSKNTLYLEMNRLRAEDTAVYHCARDNWNYWGGMDVWGQGTTVTVSS VH 2: EVQLVESGGGLVQPGGSLRLSCAASGFIVTTNYMTWLRQAPGKGLEWVSLIYSSGHTYYADSVKGRFTISRHNSKNTLYLQMDSLRAEDTAVYYCASAFAADVFDIWGQGTMVTVSS VL: not shown | 85% | 420 pM | 4.2 fold | 320 pM |
| H4H13312P2 (antibody, human IgG4, V domains shown) VH: EVQLVESGGGLVQPGGSLRLSCAASGFIVTTNYMTWLRQAPGKGLEWVSLIYSSGHTYYADSVKGRFTISRHNSKNTLYLQMDSLRAEDTAVYYCASAFAADVFDIWGQGTMVTVSS VL: not shown | 48% | 120 pM |  |  |
| H4H16447D (bispecific antibody, human IgG4, V domains shown) VH 1: QVQLVESGGGVVQPGRSLRLSCAASGFTFSSYAMHWVRQAPGRGLEWVAVIWHDGDVEYYVDSVKDRFTISRDNSKSTLYLQMNSLRAEDTALYYCAREAWDLLRPFDYWGQGTLVTVSS VH 2: EVQLVESGGGLVQPGGSLRLSCAASGFIVTTNYMTWLRQAPGKGLEWVSLIYSSGHTYYADSVKGRFTISRHNSKNTLYLQMDSLRAEDTAVYYCASAFAADVFDIWGQGTMVTVSS VL: not shown | 76% | 1400 pM |  |  |
| H4H13302P2 (antibody, human IgG4, V domains shown) VH: QVQLVESGGGVVQPGRSLRLSCAASGFTFSNFGMHWVRQAPGKGLEWVAGIWFDGSNKNYIDSVKGRFTISRDNSKNTLYLQMNSLRAEDTAVYYCAREGYDSGTDYIPYDIFDIWGQGTMVTVSS VL: not shown | 45% |  | 1.8 fold | 1600 pM |
| H4H14636D (bispecific antibody, human IgG4, V domains shown) VH 1: EVQLVESGGGLVQPGGSLRLSCAASGFIFSNYEMNWVRQAPGKGLEWISYITSSGNMKYYADSVKGRFTISRDNDKNSLYLQMSSLRVEDTAVYYCVRGGRFLEWLTYYVMVVWGQGTTVTVSS VH 2: EVQLVESGGGLVQPGGSLRLSCAASGFIVTTNYMTWLRQAPGKGLEWVSLIYSSGHTYYADSVKGRFTISRHNSKNTLYLQMDSLRAEDTAVYYCASAFAADVFDIWGQGTMVTVSS VL: not shown | 74% | 280 pM | 2.8 fold |  |
| H4H14641D (bispecific antibody, human IgG4, V domains shown) VH 1: QVQLVESGGGVVQPGRSLRLSCSASGFSFSHFGMHWVRQVPGGGLEWVTSIWFDGSNRYYADSLKGRFTISRDNSKNTLYLEMNSLRAEDTAVYYCVREGILGTTNPYDVFDVWGQGTMVTVSS VH 2: EVQLVESGGGLVQPGGSLRLSCAASGFIVTTNYMTWLRQAPGKGLEWVSLIYSSGHTYYADSVKGRFTISRHNSKNTLYLQMDSLRAEDTAVYYCASAFAADVFDIWGQGTMVTVSS VL: not shown | 75% | 84000 pM | 4.4 fold | 2700 pM |
| H4H14637D (bispecific antibody, human IgG4, V domains shown) VH 1: QVQLVESGGGVVQPGTSLRLSCVASGFTFRNFGMHWVRQAPGKGLEWVANIWFDGSNENYVESIQGRFTISRDNSKNTLNLQMNSLRAEDSAVYYCVREGILGTTNPYDAFDVWGQGTMVTVSS VH 2: EVQLVESGGGLVQPGGSLRLSCAASGFIVTTNYMTWLRQAPGKGLEWVSLIYSSGHTYYADSVKGRFTISRHNSKNTLYLQMDSLRAEDTAVYYCASAFAADVFDIWGQGTMVTVSS VL: not shown | 73% | 4100 pM | 2.1 fold |  |
| H4H16446D (bispecific antibody, human IgG4, V domains shown) VH 1: QVQLVESGGGVVQPGRSLRLSCAVSGFTFSSYGMHWVRQAPGKGLEWVANIWYDGTNDYYPYSVKGRFTISRDNSQNTLYLQMNSLRAEDTAVYYCAREDFINYRSFDYWGQGTLVTVSS VH 2: EVQLVESGGGLVQPGGSLRLSCAASGFIVTTNYMTWLRQAPGKGLEWVSLIYSSGHTYYADSVKGRFTISRHNSKNTLYLQMDSLRAEDTAVYYCASAFAADVFDIWGQGTMVTVSS VL: not shown | 83% | 1400 pM | 4 fold | 1000 pM |
| H4H16445D (bispecific antibody, human IgG4, V domains shown) VH 1: QVQLVESGGGVVQPGGSLRLSCAASGFTFSGYGMHWVRQAPGKGLEWMAVIWYDGSNDYYPDSVKGRFTISRDNSKNTLYLQMNSLRVEDTAVYYCARDAWDLLRSFDYWGQGTLVTVSS VH 2: EVQLVESGGGLVQPGGSLRLSCAASGFIVTTNYMTWLRQAPGKGLEWVSLIYSSGHTYYADSVKGRFTISRHNSKNTLYLQMDSLRAEDTAVYYCASAFAADVFDIWGQGTMVTVSS VL: not shown | 81% | 1000 pM | 4.3 fold | 520 pM |
| H4H16448D (bispecific antibody, human IgG4, V domains shown) VH 1: QVQLVESGGGVVQPGRSLRLSCVASGFSFSNFGMHWVRQAPGKGLEWVAIIWYDGSNKYYSDSVKGRFTISRDNSKNTLYLQMNSLRVDDTAVYYCARFDRWKFDAFDIWGQGTMVTVSS VH 2: EVQLVESGGGLVQPGGSLRLSCAASGFIVTTNYMTWLRQAPGKGLEWVSLIYSSGHTYYADSVKGRFTISRHNSKNTLYLQMDSLRAEDTAVYYCASAFAADVFDIWGQGTMVTVSS VL: not shown | 87% | 910 pM | 4.3 fold | 620 pM |
| H1H13316P2 (antibody, V domains shown) VH: EVQLVESGGGLVQPGGSLRLSCAASGFTFRSYVMSWFRQAPGKGLEWVSGMSGSGGSTSYADSVKGRFTISRDNSKNTLYLLMNSLRTEDTAVYYCAKENGANWNYGYYGMDVWGQGTTVTVSS VL: not shown | 86% |  | 1.7 fold | 40 pM |
| H4H13316P2 (antibody, human IgG4, V domains shown) VH: EVQLVESGGGLVQPGGSLRLSCAASGFTFRSYVMSWFRQAPGKGLEWVSGMSGSGGSTSYADSVKGRFTISRDNSKNTLYLLMNSLRTEDTAVYYCAKENGANWNYGYYGMDVWGQGTTVTVSS VL: not shown | 74% | 47 pM | 2.3 fold | 7.8 pM |
| H1H13301P2 (antibody, V domains shown) VH: QVQLVESGGGVVQPGTSLRLSCVASGFTFRNFGMHWVRQAPGKGLEWVANIWFDGSNENYVESIQGRFTISRDNSKNTLNLQMNSLRAEDSAVYYCVREGILGTTNPYDAFDVWGQGTMVTVSS VL: not shown | 42% |  | 1.4 fold | 3300 pM |
| H4H13301P2 (antibody, human IgG4, V domains shown) VH: QVQLVESGGGVVQPGTSLRLSCVASGFTFRNFGMHWVRQAPGKGLEWVANIWFDGSNENYVESIQGRFTISRDNSKNTLNLQMNSLRAEDSAVYYCVREGILGTTNPYDAFDVWGQGTMVTVSS VL: not shown | 40% |  | 1.6 fold | 1500 pM |
| H4H13325P2 (antibody, human IgG4, V domains shown) VH: EVQLLESGGGWVQPGGSLRLSCAASGFAFSNYAMNWVRQTPGKGLEWVSVISSSGGNTYYADSVKGRFAISRDNSRDTLHLQMNRLRVEDTAVYYCAKEIRPYYDLSYYYGMDVWGQGTTVTVSS VL: not shown | 69% | 190 pM | 4.3 fold | 13 pM |
| H4H13291P2 (antibody, human IgG4, V domains shown) VH: QVQLVESGGGVVQPGGSLRLSCAASGFTFSGYGMHWVRQAPGKGLEWMAVIWYDGSNDYYPDSVKGRFTISRDNSKNTLYLQMNSLRVEDTAVYYCARDAWDLLRSFDYWGQGTLVTVSS VL: not shown | 61% | 390 pM | 2.7 fold | 130 pM |
| H4H13295P2 (antibody, human IgG4, V domains shown) VH: QVQLVESGGGVVQPGRSLRVSCVVSGFTFSSFGMHWVRQAPDKGLEWVAVIWYDGSNDYYSDSVKGRFTISRDNSKNTLFLQMNRLRAEDTAVYYCARANNWNRFDAFDLWGQGTMVTVSS VL: not shown | 70% | 300 pM | 2.8 fold | 55 pM |
| H4H13313P2 (antibody, human IgG4, V domains shown) VH: QVQLVESGGGVVQPGRSLRLSCSASGFSFSHFGMHWVRQVPGGGLEWVTSIWFDGSNRYYADSLKGRFTISRDNSKNTLYLEMNSLRAEDTAVYYCVREGILGTTNPYDVFDVWGQGTMVTVSS VL: not shown | 47% |  | 1.2 fold | 2300 pM |
| H4H13306P2 (antibody, human IgG4, V domains shown) VH: EVQLVESGGGLVQPGTSLRLSCAASGFTFDDYAMHWVRQAPGKGLEWVSGITWNSYNIDYADSVKGRFTISRDNAKNSLYLQMNSLRAEDTALYYCAKDDDYSNYVYFDYWGQGTLVTVSS VL: not shown |  | 13 pM |  |  |
